In the DeepSol protein solubility set:

test: soluble on expression in E. coli; label from the status in PepcDB or PDB records

Sequence | soluble on expression in E. coli
MSLEQKQMEEKIMNLLTSAPDKTFALEDLEIEIALNNADNFKLMVKALVKLEDSGTIVRSRKNRYALPEKMDLVKGTFRAHERGFGFVLPEEKEMDDIFIPPNEVKDAMNGDLVFATITKRKGDNLAEGTIKKIVERKTTQIVGTYMEDLAGTPIVMPDDKRLFGEVEIDLEDGLKPVDGHKVIVELTEYATGHARARGVVKSIIGHRNDPGVDILSIIHKHGISIGFPEEVMEQVSKAPDLVDDSDIGNRRDLRDQMIITIDGADAKDLDDAVTVKQLPNGNWKLGVHIADVTHYVTEGSPLDIEAQERGTSVYLVDRVIPMLPHKLSNGICSLNPQVDRFTMSCEMEIDQEGHVVNHEIFESIIKTTERMTYTDVNDILVEKDEALREKYAPIVPMLEAMQNLAEILRRKREKRGAIDFDFKEARVVVDEDGHPEAVVMRERSAGEHLIEEFMLAANETVAEHFHWMDVPFIYRIHEDPKEDKLARFFEFITNFGLIVKGTANDIHPAALQQVLEEVKGKPEEMVVSTVMLRSMQQAKYDTVSAGHFGLSTDFYTHFTSPIRRYPDLIVHRLIREYLINGDVRPETLEKRAEELPEIAEHSSKMERRAVEAERETDELKKTEFMVDKVGERFIGIISSVTNFGLFIELPTTIEGLVHVSAMKGDYFKFHQNQLAMIGERTGQIYRIGDEVEVEVTKVDVDAREIDFALRSEGKPGPVSDKQKRQREKPIDKTRNFKSSSKNNRNKRRTGKSEDVKPKTERKDDEWYTKPKKKKKKKPFYQGVAKESPKKKKRREGHHHHHH | soluble
MHSKMDCVSRSPLFSPLAPAVKAKLITVTHHRKFYQKGQLIRQPLDHQEGMLILDEGTAKIYALAANGKEKIIELLRSGDVVGQHWLFAPHENQGFIQATSDAWVCSIQYDDFQRLLGESASLSLAMINNFGNQLIEAEKNQLRRDLLDAKARLMAYLRDCAVESGQIEFELPLKKKELANILGITPETLSRQFKQLAAEGQIIVNKRQITIC | not soluble
MLASKMRWEIQRPDQDKVKSLTEQLHITPLVASLLVKRGFDTAESARLFLHTKDADFYDPFEMKGMKEAADRIKQAISQQEKIMIYGDYDADGVTSTSVMLHTLQKLSAQVDFYIPDRFKEGYGPNEQAFRSIKERGFSLIITVDTGIAAVHEAKVAKELGLDVIITDHHEPGPELPDVRAIVHPKQPGCTYPFKELAGVGVAFKLAHALLGELPDELLDLAAIGTIADLVPLHDENRLIATLGLERLRRTNRLGLKELIKLSGGDIGEANEETVGFQLAPRLNAVGRIEQADPAVHLLMSEDSFEAEELAAEIDQLNKERQKMVSKMTDEAIEMVEQQGLDQTAIVVAKAGWNPGVVGIVASKLVDRFYRPAIVLGIDEEKGIAKGSARSIRGFNLFESLSECRDILPHFGGHPMAAGMTLKAEDVPDLRSRLNEIADNTLTEEDFIPVQEVDLVCGVEDITVESIAEMNMLSPFGMLNPKPHVLVENAVLEDVRKIGANKTHVKMTIRNESSQLDCVGFNKGELQEGIVPGSRISIVGEMSINEWNNRKKPQLMIKDAAVSEWQLFDLRGKRTWEDTVSALPSAKRAIVSFKEDSTTLLQTEDLRREVHVISSKDQAKAFDLDGAYIVLLDPPPSLDMLARLLEGKAPERIYFIFLNHEDHFLSTFPARDHFKWYYAFLLKRGAFDVKKHGSELAKHKGWSVETINFMTKVFFDLGFVKIENGVLSVVSGAKKRDLTDSQTYQAKQQLMELDQKLNYSSAEELKEWLNKLMKQDSEAYESTRR | not soluble
MSDMSEQSVEIASSQLGTKDFWDQRYELELKNFKQHGDEGEVWFGTSSETRIVKYLIDSKTGKDAKILDLGCGNGSVLRKLRSKGFQSLKGVDYCQKAVDLSAAASKAEREEEEDEELVDIEFEQLDITTPPADFFSSKFDVILDKGTWDAMSLSDEREARLKAYLGFLDNGLSAGGRFVIFSCNFTFDEMCSQFGGGGGSTSLEIVCEVPASHSFSFGGKQGVTSTGAVFRKKTL | not soluble
MKYRDLRDFLAQLERQGELKRITAPVSTRLEMTEIADRVLRAGGPALLFENARHNDAPADMPVLANLFGTPRRVAWGMGADDVGALRETGELLASLREPEAPKGLRDALAKVSMLKAALWDMSPKTVRSAACQEIVWEGADVDLGRLPIQTCWPGDVAPLLAWGLVITRGPNARRQNLGIYRQQPLGPNKLIMRWLSHRGGALDFRDHAQAHPGKPFPIAVALGADPATILGAVTPVPDTLSEYQFAGLLRGSRTEVVKALGSDLSVPASAEIVLEGHLLPADDPRAVAAAVPEGANPPPATGYEMALEGPYGDHTGYYNEQDWFPVFTVDRITMRRNPIYHSTYTGKPPDEPAVLGVALNEVFVPLLRRQLPEIVDFYLPPEGCSYRLAVVSIRKQYAGHAKRVMFGLWSVLRQFMYTKFIVVVDEDIDPRDWTEVVWAMTTRMDPVRDTVLVENTPIDYLDFASPVSGLGGKMGLDATNKWPGETSREWGTPIHMDEAVKRRVDAMWDTLGLAAALEHHHHHH | not soluble
GPGSMTDCWYIPEAVADRRDENRLSPNVPASYEVLGEAGIFYRHFDSEEVNDNIEGFIQPLLKKLNYQSYDVVNLSPANLGAEKFETLAEQHFMEHIHEDDEVRLILEGQGYFDVRDINDKWIRLLLKPGDCIVVPAGMYHRFTTDQSKCIKTLRIFKEAPQWIALNRGPEAEEKPARKEYLARLHAPAETAVGAVNGRTIFSLRYPLKLDAELTVITKRLLEQHSKQPLALAIYLTGSTDPTTGESWCPDCVLAKLHVARRFAELQGTYGKEHAIFLQLPVERASYLGNPNFFYRTHPILQLASVPTLLVLSPAKDAKEGGDVQWYDLLDVKVRTCDVDRTDVLNLE | soluble
MGSDKIHHHHHHMNLAAFEAFVKVMETGSISVAADQLFITQPAVTKRIHSLEEYFGVKLFESAGRGVQATHAAHSLLPKVKSWLNELRDIHHTLSHEQTQIQGRLKIGTSHHIGLHHLPAPLKHFVQQFPQVTLDVHFVDSEQAHEQVLAGDLELAFLTLPPSGDERLNYITIWNDPLVFVAAPFHPLAQKKNLTLQDLIEYPSLLPAAQTYTAQITLAEFEKQGLKPKITMSNNPLESIRMLVSIGLGWSVLPKTLLNQDMQQLDLNVEMNRQLGMVWHPARTQSRAMQELIKMMQE | not soluble
MSTITKEWLLKTIAELEEERDATPGAVNEDAAMALAAMKLALASLEAEPVAWLLSGGGAKNNVSFDSGNAYAAQLREVTPLYTAPPAPVSVPAAMEIDDDFDSAFEHGKAVGWNAYRAAMLQAEPVSNSDELPLDYLQGHKDGLEWAAQLAEANHPQTGDWLYDDQIELARAIRKGPDMPTVQGGNSPVIPDGWVMVPVELTPDMRAAWDSAPYTDDDDNDMQAAYRAMIAVAPQWKVK | not soluble
MSSNPLRFFVLTIFPHIISCYSEYGIVKQAIKKGKVEVYPIDLREFAPKGQVDDVPYGGLPGMVLKPEPIYEAYDYVVENYGKPFVLITEPWGEKLNQKLVNELSKKERIMIICGRYEGVDERVKKIVDMEISLGDFILSGGEIVALAVIDAVSRVLPGVLSEPQSIQEDSFQNRWLGYPVYTRPREYRGMKVPEELLSGHHKLIELWKLWHRIENTVKKRPDLIPKDLTELEKDILNSILSGKSFKEWLKEHKHLL | soluble
GMSSTSSKVVLHPTMLNCMRGLHKKAVLPEPVLDRGIELARAFVGGRRARGQRVERQPDVAAACLMIAAEEAQQPLPLAEVRCLDSSLGDVELRRADIVRELHLEDSERRLRDTFADNLLVKYILKLGLQVSLYLPHCKRLLTALGRVEALAGLTVADRVTTALLLARTAQTLSWEQGTHISKGKECDLGMEAIYANFSSKAHLEVTKVNKIMHLAVDVLPLIQAAFQDCGEPTAGKRKVDKNSEPEASGGTKRVKREET | soluble
MERKLFAFDIDGTLLNSEKKALDSTREALAKLREQGHLVTLATGRSRYMAQEVIWDLDFTNYVLCNGAAAFVDHEQYYQNLLHAEALERLAQDSDQRGLGFACVGLDDIKKSNQHRAEKMEIAMNSFHFHSPAYDEHFYRQNDIYQALAFYDAEDQCTFEEEYPEFRFIRWHQHSVDVVPKDGSKSATLTYLAKRVGIDAKNIIAFGDGENDREMLSHAGIGVAMGNASPSIQKVATMVTDTNDNDGIWKALKEMKAI | not soluble
GSMADEALFLLLHNEMVSGVYKSAEQGEVENGRCITKLENMGFRVGQGLIERFTKDTARFKDELDIMKFICKDFWTTVFKKQIDNLRTNHQGIYVLQDNKFRLLTQMSAGKQYLEHASKYLAFTCGLIRGGLSNLGIKSIVTAEVSSMPACKFQVMIQKL | soluble
MSDVAETLDPLRLPLQGERLIEASAGTGKTFTIAALYLRLLLGLGGSAAFPRPLTVEELLVVTFTEAATAELRGRIRSNIHELRIACLRETTDNPLYERLLEEIDDKAQAAQWLLLAERQMDEAAVFTIHGFCQRMLNLNAFESGMLFEQQLIEDESLLRYQACADFWRRHCYPLPREIAQVVFETWKGPQALLRDINRYLQGEAPVIKAPPPDDETLASRHAQIVARIDTVKQQWRDAVGELDALIESSGIDRRKFNRSNQAKWIDKISAWAEEETNSYQLPESLEKFSQRFLEDRTKAGGETPRHPLFEAIDQLLAEPLSIRDLVITRALAEIRETVAREKRRRGELGFDDMLSRLDSALRSESGEVLAAAIRTRFPVAMIDEFQDTDPQQYRIFRRIWHHQPETALLLIGDPKQAIYAFRGADIFTYMKARSEVHAHYTLDTNWRSAPGMVNSVNKLFSQTDDAFMFREIPFIPVKSAGKNQALRFVFKGETQPAMKMWLMEGESCGVGDYQSTMAQVCAAQIRDWLQAGQRGEALLMNGDDARPVRASDISVLVRSRQEAAQVRDALTLLEIPSVYLSNRDSVFETLEAQEMLWLLQAVMTPERENTLRSALATSMMGLNALDIETLNNDEHAWDVVVEEFDGYRQIWRKRGVMPMLRALMSARNIAENLLATAGGERRLTDILHISELLQEAGTQLESEHALVRWLSQHILEPDSNASSQQMRLESDKHLVQIVTIHKSKGLEYPLVWLPFITNFRVQEQAFYHDRHSFEAVLDLNAAPESVDLAEAERLAEDLRLLYVALTRSVWHCSLGVAPLVRRRGDKKGDTDVHQSALGRLLQKGEPQDAAGLRTCIEALCDDDIAWQTAQTGDNQPWQVNDVSTAELNAKTLQRLPGDNWRVTSYSGLQQRGHGIAQDLMPRLDVDAAGVASVVEEPTLTPHQFPRGASPGTFLHSLFEDLDFTQPVDPNWVREKLELGGFESQWEPVLTEWITAVLQAPLNETGVSLSQLSARNKQVEMEFYLPISEPLIASQLDTLIRQFDPLSAGCPPLEFMQVRGMLKGFIDLVFRHEGRYYLLDYKSNWLGEDSSAYTQQAMAAAMQAHRYDLQYQLYTLALHRYLRHRIADYDYEHHFGGVIYLFLRGVDKEHPQQGIYTTRPNAGLIALMDEMFAGMTLEEA | soluble
MVDLGFSLYPERYDVTKSKAYIDLCHSYGAKRLFMSLLQLAPADHQMFHCYAELIAYANQLGIRVIADVSPSFISQAGWSDQLIERAHAFGLAGLRLDEALPLAEIVTLTRNPFGLKIELNMSTDKQLLMSLLATDAERSNIIGCHNFYPHEFTGLSWQHFKDMSRFYHEHDIETAAFITAQSASEGPWLLAEGLPTVEDHRHLPIGLQVELMKAIGTIDNILISNQFISEEELAACTQALARPVTTIKVRPIIDLTEVEEQIIGYPHCYRGDVSDYVIRSTMPRLVYAQESIAPRDQSKEVKRGSIIIDNDRYHRYKGELQIALKNFTVSSKANVVAEVREDYLSLLDDLRPWQEFCLEIAPS | not soluble
MGSDKIHHHHHHMDIKQIRYFIAIVENHFNLSQAAELLYVSQPTLSMMINDFEKRENVKLFKRKRGRIIGLTYLGDNYYKDAQKVLSLYDDMFLKLHDHSKGLKGSINIGIPPLILSVVFSEVMPKLILENPGIQFNVKEIGAYQLKNELLVGNVDVAVLLSPTGIADNLVETYEIQRSELSVCLSPRHRLASKKVIQWEDLTDEQLALFDPSFMVHHLVLEACERHQVRPNIILTSSSWDFMLNSTKINHNVLTICPKPITELYQLKDIKCIPMERPISWRVVLTRLRKKSYSEIEAYIMDDLLQSFFK | not soluble
MSDESANPSCISHLSIGTNDFPRARAFYDAVMAALGCKVILEYPGAVAYGKLYPEFWVQAPIDGRPASVGNGSHVGFFADSKAQVDAFHAAALAAGARDEGAPGPRPLYGEPYYGCFIRDLDGHKVEASYWDMSQGFDAHDHAH | not soluble
